Measurements: patent publication US20240034757A1 (OXFORD UNIVERSITY INNOVATION, published 2024)
Numbering of substitutions follows the chain as printed. Numbers in names are those of the source.

Key:
[1] = molecular target: T1, CXCL8_HUMAN (human, UniProt P10145 28-99); experiment: BLI, sensor already loaded with CCL5
T1 sequence: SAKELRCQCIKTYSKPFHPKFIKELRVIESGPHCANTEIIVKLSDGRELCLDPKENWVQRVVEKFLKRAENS

[2] = molecular target: T2, CXCL1_HUMAN (human, UniProt P09341 35-107); experiment: BLI, sensor already loaded with CCL5
T2 sequence: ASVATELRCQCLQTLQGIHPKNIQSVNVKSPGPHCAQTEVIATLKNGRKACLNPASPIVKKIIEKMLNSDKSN

[3] = molecular target: T3, CCL5_HUMAN (human, UniProt P13501 24-91); experiment: BLI, evasin on nickel sensor
T3 sequence: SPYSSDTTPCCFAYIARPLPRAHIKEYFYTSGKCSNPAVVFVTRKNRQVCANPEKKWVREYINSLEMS

[4] = molecular target: T3, CCL5_HUMAN; experiment: cell-based or functional assay
[5] = molecular target: T4, CCL8_HUMAN (human, UniProt P80075 24-99); experiment: cell-based or functional assay
T4 sequence (looked up): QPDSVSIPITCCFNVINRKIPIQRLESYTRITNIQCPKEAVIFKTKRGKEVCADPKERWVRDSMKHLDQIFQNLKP

[6] = molecular target: T5, CCL3L1_HUMAN (human, UniProt P16619 24-93); experiment: cell-based or functional assay
T5 sequence: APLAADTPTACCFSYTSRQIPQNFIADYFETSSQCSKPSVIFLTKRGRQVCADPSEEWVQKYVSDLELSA

[7] = molecular target: T6, CCL3_HUMAN (human, UniProt P10147 24-92); experiment: cell-based or functional assay
T6 sequence: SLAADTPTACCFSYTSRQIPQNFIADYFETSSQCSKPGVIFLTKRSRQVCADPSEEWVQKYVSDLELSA

[8] = molecular target: T7, CCL7_HUMAN (human, UniProt P80098 24-99); experiment: cell-based or functional assay
[9] = molecular target: T8, CCL2_HUMAN (human, UniProt P13500 24-99); experiment: cell-based or functional assay
[10] = molecular target: T9, CCL18_HUMAN (human, UniProt P55774 21-89); experiment: BLI
T9 sequence: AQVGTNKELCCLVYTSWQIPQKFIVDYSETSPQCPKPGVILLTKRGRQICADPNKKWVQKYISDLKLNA

[11] = molecular target: T10, CCL21_HUMAN (human, UniProt O00585 24-134); experiment: BLI
T10 sequence: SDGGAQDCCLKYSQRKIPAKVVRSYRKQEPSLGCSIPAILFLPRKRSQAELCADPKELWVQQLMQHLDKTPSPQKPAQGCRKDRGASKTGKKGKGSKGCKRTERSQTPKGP

[12] = molecular target: T3, CCL5_HUMAN; experiment: BLI
[13] = molecular target: T11, CCL4_HUMAN (human, UniProt P13236 24-92); experiment: BLI
T11 sequence: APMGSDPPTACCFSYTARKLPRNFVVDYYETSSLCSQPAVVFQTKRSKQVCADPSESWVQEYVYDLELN

[14] = molecular target: T12, CCL15_HUMAN (human, UniProt Q16663 22-113); experiment: BLI
T12 sequence: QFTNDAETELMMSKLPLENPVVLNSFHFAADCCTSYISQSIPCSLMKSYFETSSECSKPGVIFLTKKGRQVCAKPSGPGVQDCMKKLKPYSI

[15] = molecular target: T13, CCL23_HUMAN (human, UniProt P55773 22-120); experiment: BLI
T13 sequence: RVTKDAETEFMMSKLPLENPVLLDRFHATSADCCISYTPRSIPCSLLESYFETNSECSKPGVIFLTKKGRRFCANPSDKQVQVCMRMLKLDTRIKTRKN

[16] = molecular target: CCL13_HUMAN (human, UniProt Q99616 24-98); experiment: BLI
[17] = molecular target: T4, CCL8_HUMAN; experiment: BLI
[18] = molecular target: T14, CCL24_HUMAN (human, UniProt O00175 27-104); experiment: BLI
T14 sequence: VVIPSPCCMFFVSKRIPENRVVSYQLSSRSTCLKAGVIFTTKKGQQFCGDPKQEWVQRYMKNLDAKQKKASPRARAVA

[19] = molecular target: T15, CCL19_HUMAN (human, UniProt Q99731 22-98); experiment: BLI
T15 sequence: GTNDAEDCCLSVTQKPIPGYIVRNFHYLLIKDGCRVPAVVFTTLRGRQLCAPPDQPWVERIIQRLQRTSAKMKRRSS

[20] = molecular target: T16, CCL22_HUMAN (human, UniProt O00626 25-93); experiment: BLI
T16 sequence: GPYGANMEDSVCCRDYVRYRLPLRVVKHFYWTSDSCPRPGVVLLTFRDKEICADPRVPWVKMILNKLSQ

[21] = molecular target: T5, CCL3L1_HUMAN; experiment: BLI
[22] = molecular target: T17, CCL27_HUMAN (human, UniProt Q9Y4X3 25-112); experiment: BLI
T17 sequence: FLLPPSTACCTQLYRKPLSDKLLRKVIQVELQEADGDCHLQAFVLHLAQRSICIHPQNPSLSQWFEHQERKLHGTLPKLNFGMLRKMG

[23] = molecular target: CCL20_HUMAN (human, UniProt P78556 27-96); experiment: BLI
[24] = molecular target: T6, CCL3_HUMAN; experiment: BLI
[25] = molecular target: T18, CCL4L1_HUMAN (human, UniProt Q8NHW4 24-92); experiment: BLI
T18 sequence: T11 sequence with S47G

[26] = molecular target: T19, CCL17_HUMAN (human, UniProt Q92583 24-94); experiment: BLI
T19 sequence: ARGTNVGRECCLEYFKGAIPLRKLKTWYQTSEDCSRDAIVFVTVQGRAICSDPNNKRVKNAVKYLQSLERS

[27] = molecular target: T20, CCL14_HUMAN (human, UniProt Q16627 22-93); experiment: BLI
T20 sequence: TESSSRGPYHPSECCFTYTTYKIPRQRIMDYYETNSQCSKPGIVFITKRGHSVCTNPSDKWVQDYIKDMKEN

[28] = molecular target: T7, CCL7_HUMAN; experiment: BLI
[29] = molecular target: T21, CCL16_HUMAN (human, UniProt O15467 24-120); experiment: BLI
T21 sequence: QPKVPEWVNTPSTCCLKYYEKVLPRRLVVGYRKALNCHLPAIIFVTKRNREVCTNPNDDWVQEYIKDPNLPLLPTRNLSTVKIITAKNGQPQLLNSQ

[30] = molecular target: T8, CCL2_HUMAN; experiment: BLI
[31] = molecular target: T22, CCL1_HUMAN (human, UniProt P22362 24-96); experiment: BLI
T22 sequence: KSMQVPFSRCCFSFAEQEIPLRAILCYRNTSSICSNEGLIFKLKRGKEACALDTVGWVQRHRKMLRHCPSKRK

[32] = molecular target: CCL11_HUMAN (human, UniProt P51671 24-97); experiment: BLI
Chain of CCL11_HUMAN (P51671 24-97 limits assumed): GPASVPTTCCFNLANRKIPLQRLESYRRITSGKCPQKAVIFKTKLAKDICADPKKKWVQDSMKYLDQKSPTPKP

T8 sequence (P13500 24-99 limits assumed): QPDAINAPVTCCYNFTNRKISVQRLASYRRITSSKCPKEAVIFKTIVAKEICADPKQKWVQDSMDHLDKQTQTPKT
T7 sequence (P80098 24-99 limits assumed): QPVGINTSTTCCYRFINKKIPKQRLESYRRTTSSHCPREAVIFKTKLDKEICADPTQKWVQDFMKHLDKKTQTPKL
Chain of CCL20_HUMAN (P78556 27-96 limits assumed): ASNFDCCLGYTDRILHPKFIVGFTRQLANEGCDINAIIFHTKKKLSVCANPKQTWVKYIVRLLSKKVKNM
Chain of CCL13_HUMAN (Q99616 24-98 limits assumed): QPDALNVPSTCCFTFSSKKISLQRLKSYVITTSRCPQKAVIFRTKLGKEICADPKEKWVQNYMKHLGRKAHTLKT

B1: P1156:G4S:P1243 (designed binder)
chain: ADDDNELFTVQYCGMNCTKDEGGTWTGCTGKKEGCKCYHESGKNYGLCLSTEYTDFSQYGNPSDSEIEAAKPKRSDTLSHGGGGSRNHTEDNSTEYYDYEEARCACPARHLNNTNGTVLKLLGCHYFCNGTLCTAPDGYPCYNLTAQQVRTLTTYPNTSCAVGVCMKGTCVKNGTMEQCFKTP
notes: also called two-warhead evasin
[1]
  binding result: binds
[2]
  binding result: binds
[3]
  binding result: binds

B2: P991_AMBCA (other)
chain: ENGEGTTQPDYDNSTDYYNYEDFKCTCPAPHLNNTNGTVMKPIGCYYTCNVTRCTAPDTYPCYNLTEHQAKNLTTSPTTLCAVGNCDHGICVPNGTKELCFKAPNLEE
[4]
  IC50, THP1 cell migration: 1.84 nM
[5]
  IC50, THP1 cell migration: 2.1 nM
[6]
  IC50, THP1 cell migration: 1.17 nM
[7]
  IC50, THP1 cell migration: 2.9 nM
[8]
  IC50, THP1 cell migration: 6.51 nM
[9]
  IC50, THP1 cell migration: 4.78 nM
[10]
  RT: 185 min
[11]
  RT: 12.1 min
[12]
  RT: 113 min
[13]
  RT: 32.2 min
[14]
  RT: 1.08 min
[15]
  RT: 32.3 min
[16]
  RT: 290 min
[17]
  RT: 10.8 min
[18]
  RT: 7.07 min
[19]
  RT: 7 min
[20]
  RT: 16.8 min
[21]
  RT: 52 min
[22]
  RT: 4.14 min
[23]
  RT: 7.03 min
[24]
  RT: 42.6 min
[25]
  RT: 42.8 min
[26]
  RT: 10.3 min
[27]
  RT: 192 min
[28]
  RT: 508 min
[29]
  RT: 102 min
[30]
  RT: 4.17 min
[31]
  RT: 5.37 min
[32]
  RT: 24.9 min
